Laboratory results: the supplement of paper PMC12764529
± gives the half width of the 95% confidence interval.

How the values were obtained:
[1] = folding stability dG unfold from trypsin proteolysis; higher = more stable
Summary of the method: (§1)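 Bayesian fitting of sequencing counts gave K50 for each design. Unfolding free energy followed by setting this against a sequence-predicted unfolded-state K50 and a shared folded-state K50, either per protease or with trypsin and chymotrypsin combined. The designs, under 80 residues and lacking cysteine, were digested in a PA-tagged cDNA display format at 11 threefold-diluted protease concentrations and without protease, and only those with AlphaFold2 dimer inter-PAE above 15 were kept.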

[2] = folding stability dG unfold from chymotrypsin proteolysis; higher = more stable
Summary of the method: as §1

[3] = folding stability dG unfold (combined trypsin and chymotrypsin); higher = more stable
Summary of the method: as §1

| Sequence | folding stability dG unfold [1] [kcal/mol] | folding stability dG unfold [2] [kcal/mol] | folding stability dG unfold [3] [kcal/mol] |
| --- | --- | --- | --- |
| SAGSPETVTLPLTVTLPPGVPLSQIEAVLKKNGFTELEITASPTPDGTLRYAIDATMPVSVVEKLIKALSAG [r5_376_JUSTAS] | 1.8 ± 0.035 | 2.24 ± 0.042 | 2.08 ± 0.059 |
| SAGSPLYEVKSEEVLPGPGGEPMRVTVVELPGGEILTFVESPDGLLEIRYIPAETGKFEKTEKVPRDLLSAG [r5_750_JUSTAS] | 0.445 ± 0.06 | 0.802 ± 0.087 | 0.618 ± 0.15 |
| SAGSPPDDVREEETEEVVPSPDGSLTVTRTPVVRRPGEEEEVRTETTVYFPPSDETLTSESLTRFPGASAGG [r19_387_JUSTAS] | 0.356 ± 0.049 | 0.895 ± 0.051 | 0.695 ± 0.095 |
| SAGSSPEEIAERLREEAERTEKLPDGSEVRVSVSVDVEVLPNGTVRLTIPRSYPETGVVTTETVTIPVASAG [r5_397_JUSTAS] | 0.0542 ± 0.11 | -0.579 ± 0.33 | -0.194 ± 0.16 |
| SAGSSSSLPNVLVVTLYLPDAPLPIVLPVDTPEDVELAKERVKEIEKELEELGLPVNVEFKYYPPGFPVSAG [r5_823_TrMRF] | 0.497 ± 0.065 | -1.16 ± 0.84 | 0.194 ± 0.18 |
| SAGSSSVTLFPEYTITTTTLPDGSRSVTINFTNPEEAKKLFEENPEIKELIEKFKKEGWDVKINAKNPSSAG [r14_873_JUSTAS] | 2.98 ± 0.21 | 3.95 ± 0.17 | 3.67 ± 0.22 |
| SAGSSTTETFTHPDGSVVTVTEEELPDGSYRVTSVSYEATPDGTVSALLRKPDGTIITVDSLEELFALESAG [r5_618_JUSTAS] | 0.965 ± 0.025 | 1.51 ± 0.076 | 1.34 ± 0.083 |
| SAGSVEIKESSLPDSTIITITIPYTSPEEAPERIERLLKELGLSENVQVIEVKYEPSPPVVTVKIKIESAGG [r19_186_JUSTAS] | 2.41 ± 0.077 | 3.21 ± 0.09 | 2.99 ± 0.12 |
| SAGSVETFEDPEVGRVVIVPLPGGEVLTIELPPDSITMTLTSPKGGESVTITKKMKPGEEEELIKELASSAG [r5_820_JUSTAS] | -0.521 ± 0.47 | -0.603 ± 0.45 | -0.358 ± 0.3 |
| SAGSVEVSVSGNEIHITAPEGISLEELIELIKKLFPGADIGEVSVEKLPDGRYVATFKAGFKPPSPDELSAG [r5_110_TrMRF] | 4.41 ± 0.25 | 4.29 ± 0.14 | 4.34 ± 0.12 |
| SAGSVTITLNIPPGQDVTLNIGGKEATLTVDPETKVYTMTDPQTGDVWTVTVDPNSPVASVTYTAAPAGSAG [r5_302_JUSTAS] | 0.996 ± 0.039 | 1.57 ± 0.15 | 1.37 ± 0.11 |
| SAGSVTVTETKTEGDKETITMTRPETGETVEEKITKKNGKVKVTKTYYSPSGVKLGSSEKVLSESELLLSAG [r5_308_JUSTAS] | -0.0129 ± 0.18 | -0.195 ± 0.33 | -0.0136 ± 0.26 |
| SAGTAKELAELLPGATVEVDEETGTVTVTVELDGYTVRIEIRVDPETGEIVEIRITVTNPDGEEREFELSAG [r5_367_TrROS_Hall] | 3.01 ± 0.077 | 2.92 ± 0.096 | 2.94 ± 0.062 |
| SAGTELELEAEAEVLFPELGTRARVRVRARVRPTEDEVEVELEVEAEFEPLPLVPPIVSPEENPELAEGSAG [r14_435_TrMRF] | 3.19 ± 0.12 | 2.7 ± 0.14 | 3.08 ± 0.17 |
| SAGTIHFMVPRDEMSDEEAEDIVNTIAKHFPGFKIDRIYWHKQPDPDGDPRRMYHVEIKIKIPLPPGMKSAG [r5_835_TrROS] | 1.29 ± 0.022 | 2.41 ± 0.06 | 2.06 ± 0.059 |
| SAGTIRLNGLELEVDIEWWPEHGYITINVTITWPNGRTMMMQIIIKVKPVKPPPPPPPKYDPDNGKPKASAG [r5_816_TrROS] | 2.97 ± 0.1 | 4.38 ± 0.25 | 3.68 ± 0.34 |
| SAGTIVFSRDELKELGIPEDMTVEEIKQKILDRLKEEGYEVKITKIEVVEVDEEEGRVLVRITIEVKKPSAG [r5_23_TrROS_Hall] | 3.69 ± 0.14 | 4.28 ± 0.13 | 4.17 ± 0.13 |
| SAGTLVLVIEVPLEDVTPEQAEEIAEEAARFLREAGLPEGIEVEDVRVERLPDGRLLVLLPMRILEDESAGG [r19_87_TrMRF] | 1.97 ± 0.056 | 2.59 ± 0.059 | 2.41 ± 0.14 |
| SAGTVRLEVTVVIKLTKEQIENLPKDVKLEDGAEIEEKDDYLVIKRTIELPPPVVTDKDGKKLPLEELSAGG [r19_148_TrROS_Hall] | 0.23 ± 0.17 | 1.4 ± 0.087 | 0.938 ± 0.32 |
| SAGTVTIGIWIPADDIEQIKELIRSIAEEHGWEVKVDKIEPNPDGQYFVTVTVENPENGKEIKITIWIPSAG [r5_41_TrROS] | 2.98 ± 0.056 | 3.39 ± 0.044 | 3.25 ± 0.11 |
| SAGVDGVKWNPESNEVSVEYEVNNQRVEQYIEPKPIPPVIVIPIDDIAERNPGLKDDLDENPGDWLVFPSAG [r5_958_TrROS] | 0.79 ± 0.077 | -0.332 ± 0.089 | 0.415 ± 0.09 |

| Sequence | folding stability dG unfold [1] [kcal/mol] | folding stability dG unfold [2] [kcal/mol] | folding stability dG unfold [3] [kcal/mol] |
| --- | --- | --- | --- |
| SAGWFISIKYKDPPTGRKRKISIPIPPGDPWLKELGFPSLDGLAKWLAPEMREEGHDVKDVKVEIMPPKSAG [r5_722_TrROS] | 3.38 ± 0.19 | 4.16 ± 0.059 | 3.75 ± 0.16 |
| SAGWIIRITLPDNGRTIEIDFENGYIIKITSPDEGKPRVIPIPPDDIREWIKELFPGPVRIVEIYPLPKSAG [r5_519_TrROS] | 2.21 ± 0.042 | 3.09 ± 0.05 | 2.69 ± 0.083 |
| SAGWIMINSPEDAERIVEELRKLLPPGYKIDVEPMPNGSVMIEFENPEEGREIKIHYDRRNGMYWIEPVSAG [r5_358_TrROS] | 2.58 ± 0.13 | 2.54 ± 0.079 | 2.59 ± 0.11 |
| SAGWISPKQLRHALRNGKPIKIYMPNPQNKEHAKNWLRQETGLPKEEQKELLKDVKIEPMPPNDPNFKKSAG [r5_368_TrROS] | 0.128 ± 0.33 | 0.497 ± 0.47 | -0.0521 ± 0.45 |
| SAGWYIKVEVYYGGKKHTFMIPRKQAKELRKKYPPGDEIPIPFNGRDVEIRVQVIPPPPPSPEDAADNKSAG [r5_669_TrROS] | 1.83 ± 0.047 | 2.75 ± 0.12 | 2.44 ± 0.17 |
| SAGYEWVRELAKKKGFKDIKIEDVQPQRPPDGMEYMHVRIEVQHPGKKREVDIWMRPDNIEEALEQALKSAG [r5_549_TrROS] | 0.402 ± 0.096 | 0.993 ± 0.08 | 0.766 ± 0.11 |
| SAHITISIEVPLPNLKGQTPEEAREVAKDKAREIAKMFNPEFGIKVKEVEVEPHPDEGWLKVDITFEPKSAG [r14_310_TrROS] | 0.998 ± 0.058 | 0.596 ± 0.05 | 0.824 ± 0.2 |
| SAHRIMIMFDSPEQAEEIIRKIAEEMGWKPKNIDVEVHPFPVTRPTPDGKKEEHPMYWVTIEIKLKPKKSAG [r14_773_TrROS] | 1.94 ± 0.066 | 2.84 ± 0.096 | 2.37 ± 0.27 |
| SAHTISIRIPPNMKPITAEELKKEPGYEVKDINVYPNEDGNMYFTIEVEPGMPPKKMDEILERIRDRMGSAG [r14_421_TrROS] | 0.764 ± 0.034 | 0.911 ± 0.038 | 0.862 ± 0.059 |
| SAIKIEEIKDVNPENKNIRIKIEMPGGPHEIPIPAKSEMDVEEALDLILDWFERHFPPGHKMRIEEIEISAG [r14_422_TrROS] | 0.886 ± 0.091 | -0.0828 ± 0.13 | 0.341 ± 0.1 |
| SAIPINLPPGDKVKITFRNPDGSRMEIEFDPENGKWKVKMRPNDGKKQEQTIPAGNLDDLPPGVYSIEPVSA [r9_1110_TrROS] | 1.08 ± 0.16 | 1.78 ± 0.27 | 1.33 ± 0.26 |
| SAIVLVVADDSPEEAVERARRFAATLRERLVREGYPDADVPIVVEVRAVPPPVPVPVRLPDGDEVVPAPSAG [r14_475_TrMRF] | 0.647 ± 0.1 | 1.7 ± 0.044 | 1.32 ± 0.064 |
| SAKAELEIKFPGWKVTVEIEDVDPKNDMVKLKAFFRNGWVFTQTVNPDDGKIEIPIIPVKPDPDGKWKFSAG [r14_466_TrROS] | 1.21 ± 0.032 | 1.38 ± 0.096 | 1.35 ± 0.091 |
| SAKEEYYKVRIYFPETNEVVEIEAKSEEEALEALKKLLNEPNIVKIEIEKVEVEEEPEEKEYSEEELKSSAG [r14_747_TrROS_Hall] | 2.02 ± 0.04 | 2.39 ± 0.046 | 2.32 ± 0.12 |
| SAKEIASGTFLLDNGATLTVTSIKYDPETGKVSIPVELTVYVPKIDPNDPNKPTIEPFTFKITFTFKVDSAG [r14_888_TrMRF] | 2.51 ± 0.073 | 3.78 ± 0.026 | 3.34 ± 0.087 |
| SAKILEIKPLPDGTVIIKIPVDAPEDVDPKEVKILVKSEEGVKEAEILEDGTIDIVVENVKDVKIEIFVESA [r9_722_TrMRF] | 0.305 ± 0.061 | 0.382 ± 0.074 | 0.359 ± 0.1 |
| SAKITIFFPFDAVKEILDLLKENGVEVNIERHPGNPWYSATITRPDPNGKELPIEIMMFPDHGYVQITLSAG [r14_169_TrROS] | 2.65 ± 0.14 | 2.62 ± 0.04 | 2.57 ± 0.13 |
| SAKIVVKLPEKPKVAVIEFPPGMTKEEILKALEEVPGLSEEEREALKKKIEELEALAKNPELLKKLEEESAG [r14_732_TrROS_Hall] | -0.378 ± 0.087 | 1.19 ± 0.051 | 0.797 ± 0.12 |
| SAKKAEEIAEKVEKTIKEAAKEKGYDVNIKVKATKGKDGKVTVYIDFDSPENAKEFIEKLPKSVNVVIASAG [r14_491_TrMRF] | 1.3 ± 0.052 | 1.42 ± 0.059 | 1.41 ± 0.11 |
| SAKKKYIAKVLIEKGDKIIEIEIPGDATVKNPDGKEYTFKVESPEKLKEAIKKLFPEKYPAKILEVKEESAG [r14_41_TrMRF] | 1.18 ± 0.058 | 1.73 ± 0.087 | 1.54 ± 0.18 |
| SAKKPLYLIIVKIGPDGKEIVIVAESEEEARKAAEEELRKLFPDLEIKEIKIIPLEKVKTKEEALELLKSAG [r14_900_TrROS_Hall] | 2.16 ± 0.066 | 1.92 ± 0.07 | 1.89 ± 0.16 |
